The source of these data is US20200399364A1 (PHANES THERAPEUTICS, published 2020).

As usually defined, the EC50 is the midpoint of the concentration-response curve. A high value points to weaker potency.

First the molecules themselves.
B1: humanized anti-CLDN18.2 mAb 5-E22-H1L1 (antibody, V domains shown)
VH: QVQLVQSGVEVKKPGASVKVSCKASGYTITDNYMHWVRQAPGQGLEWIGEIYPGSGNTYFNEKFKNRATLTADKSTTTAYMELKSLQFDDTAVYFCARGFPYYAMDYWGQGTTVTVSS
VL: EIVMTQSPATLSLSPGERATLSCHARQNINVWLSWYQQKPGQAPRLLIYKASNLHTGVPARFSGSGSGTDFTLTISSLEPEDFAVYYCQQGQNYPLTFGGGTKVEIK
notes: Humanized VH and VL fused to the constant regions of human IgG1 heavy chain and kappa light chain
B2: humanized anti-CLDN18.2 mAb 5-E22-H1L3 (antibody, V domains shown)
VH: QVQLVQSGVEVKKPGASVKVSCKASGYTITDNYMHWVRQAPGQGLEWIGEIYPGSGNTYFNEKFKNRATLTADKSTTTAYMELKSLQFDDTAVYFCARGFPYYAMDYWGQGTTVTVSS
VL: DIVMTQSPLSLPVTPGEPASISCHARQNINVWLSWYLQKPGQSPQLLIYKASNLHTGVPDRFSGSGSGTDFTLKISRVEAEDVGVYYCQQGQNYPLTFGQGTKVEIK
notes: as for B1
B3: humanized anti-CLDN18.2 mAb 5-E22-H3L1 (antibody, V domains shown)
VH: QVQLVQSGAEVKKPGASVKVSCKASGYTITDNYMHWVRQAPGQGLEWIGEIYPGSGNTYYAEKFKNRATLTADKSISTAYMELSRLRSDDTAVYFCARGFPYYAMDYWGQGTLVTVSS
VL: EIVMTQSPATLSLSPGERATLSCHARQNINVWLSWYQQKPGQAPRLLIYKASNLHTGVPARFSGSGSGTDFTLTISSLEPEDFAVYYCQQGQNYPLTFGGGTKVEIK
notes: as for B1
B4: humanized anti-CLDN18.2 mAb 5-E22-H3L3 (antibody, V domains shown)
VH: QVQLVQSGAEVKKPGASVKVSCKASGYTITDNYMHWVRQAPGQGLEWIGEIYPGSGNTYYAEKFKNRATLTADKSISTAYMELSRLRSDDTAVYFCARGFPYYAMDYWGQGTLVTVSS
VL: DIVMTQSPLSLPVTPGEPASISCHARQNINVWLSWYLQKPGQSPQLLIYKASNLHTGVPDRFSGSGSGTDFTLKISRVEAEDVGVYYCQQGQNYPLTFGQGTKVEIK
notes: as for B1
B5: humanized anti-CLDN18.2 mAb 5-E22-H3L2 (antibody, V domains shown)
VH: QVQLVQSGAEVKKPGASVKVSCKASGYTITDNYMHWVRQAPGQGLEWIGEIYPGSGNTYYAEKFKNRATLTADKSISTAYMELSRLRSDDTAVYFCARGFPYYAMDYWGQGTLVTVSS
VL: EIVLTQSPATLSLSPGERATLSCHARQNINVWLSWYQQKPGQAPRLLIYKASNLHTGIPARFSGSGSGTDFTLTISSLEPEDFAVYYCQQGQNYPLTFGGGTKVEIK
notes: as for B1
B6: humanized anti-CLDN18.2 mAb 5-E22-H1L2 (antibody, V domains shown)
VH: QVQLVQSGVEVKKPGASVKVSCKASGYTITDNYMHWVRQAPGQGLEWIGEIYPGSGNTYFNEKFKNRATLTADKSTTTAYMELKSLQFDDTAVYFCARGFPYYAMDYWGQGTTVTVSS
VL: EIVLTQSPATLSLSPGERATLSCHARQNINVWLSWYQQKPGQAPRLLIYKASNLHTGIPARFSGSGSGTDFTLTISSLEPEDFAVYYCQQGQNYPLTFGGGTKVEIK
notes: as for B1
B7: humanized anti-CLDN18.2 mAb 2-C3-H1L1 (antibody, V domains shown)
VH: QVTLRESGPALVKPTQTLTLTCTASGFTFSSYGMSWVRQPPGKALEWVATISGGGSYTYYNPSLKDRFTISRDISANQLVLKVTNMDPADTATYFCARQSRGNAMDYWGQGTTVTVSS
VL: DIQMTQSPSTLSASVGDRVTITCKSSQSLLNSGNQKNYLTWYQQKPGKAPKLLIYWASTRESGVPSRFSGSGSGTAFTLTISSLQPDDFATYYCQNDYSYPLTFGGGTKVEIK
notes: as for B1
B8: humanized anti-CLDN18.2 mAb 6-J11-H1L1 (antibody, V domains shown)
VH: EVQLVESGGGLVQPGGSLRLSCAASGFIFSSFGMHWVRQAPGKGLEWVAYISSGRSTMYYADSVKGRFTISRDNSKNTLYLQMNSLTAEDTAVYYCARGGFYGNSLDYWGQGTLVTVSS
VL: DIQMTQSPSSLSASVGDRVTITCKSSLSLLNSGNQKNYLTWYQQKPGKAPKLLIYWASTRESGVPSRFSGSGSGTDFTLTISSLQPEDFATYSCQNAYSYPLTFGQGTKVEIK
notes: as for B1
B9: humanized anti-CLDN18.2 mAb 2-C3-H2L2 (antibody, V domains shown)
VH: QVTLRESGPALVKPTQTLTLTCTFSGFTFSSYGMSWIRQPPGKALEWLATISGGGSYTYYLDSLKDRFTISRDISKNQVVLTVTNMDPADTATYFCARQSRGNAMDYWGQGTTVTVSS
VL: DIQMTQSPSTLSASVGDRVTITCKSSQSLLNSGNQKNYLTWYQQKPGKAPKLLIYWASTRESGVPSRFSGSGSGTEFTLTISSLQPDDFATYYCQNDYSYPLTFGGGTKVEIK
notes: as for B1
B10: humanized anti-CLDN18.2 mAb 6-J11-H2L1 (antibody, V domains shown)
VH: EVQLVESGGGLVQPGGSLRLSCAASGFIFSSFGMHWVRQAPGKGLEWVAYISSGRSTMYYADSVKGRFTISRDNSKNTLYLQMNSLRSEDTAVYYCARGGFYGNSLDYWGQGTLVTVSS
VL: DIQMTQSPSSLSASVGDRVTITCKSSLSLLNSGNQKNYLTWYQQKPGKAPKLLIYWASTRESGVPSRFSGSGSGTDFTLTISSLQPEDFATYSCQNAYSYPLTFGQGTKVEIK
notes: as for B1
B11: humanized anti-CLDN18.2 mAb 2-C3-H2L1 (antibody, V domains shown)
VH: QVTLRESGPALVKPTQTLTLTCTFSGFTFSSYGMSWIRQPPGKALEWLATISGGGSYTYYLDSLKDRFTISRDISKNQVVLTVTNMDPADTATYFCARQSRGNAMDYWGQGTTVTVSS
VL: DIQMTQSPSTLSASVGDRVTITCKSSQSLLNSGNQKNYLTWYQQKPGKAPKLLIYWASTRESGVPSRFSGSGSGTAFTLTISSLQPDDFATYYCQNDYSYPLTFGGGTKVEIK
notes: as for B1
B12: humanized anti-CLDN18.2 mAb 2-C3-H1L2 (antibody, V domains shown)
VH: QVTLRESGPALVKPTQTLTLTCTASGFTFSSYGMSWVRQPPGKALEWVATISGGGSYTYYNPSLKDRFTISRDISANQLVLKVTNMDPADTATYFCARQSRGNAMDYWGQGTTVTVSS
VL: DIQMTQSPSTLSASVGDRVTITCKSSQSLLNSGNQKNYLTWYQQKPGKAPKLLIYWASTRESGVPSRFSGSGSGTEFTLTISSLQPDDFATYYCQNDYSYPLTFGGGTKVEIK
notes: as for B1

This experiment deals with T1, human claudin 18.2 (CLDN18.2) (human).
T1 construct: also called claudin 18 variant 2; claudin-18a2.1
T1 sequence (chain, as listed by the source limits assumed): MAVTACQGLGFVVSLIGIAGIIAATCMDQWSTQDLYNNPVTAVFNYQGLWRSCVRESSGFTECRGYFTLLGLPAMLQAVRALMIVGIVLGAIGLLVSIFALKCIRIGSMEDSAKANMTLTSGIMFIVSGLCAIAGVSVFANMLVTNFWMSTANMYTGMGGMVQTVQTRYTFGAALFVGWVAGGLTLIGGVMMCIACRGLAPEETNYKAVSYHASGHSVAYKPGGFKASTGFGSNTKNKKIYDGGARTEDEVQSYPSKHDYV
Put plainly: FACS on HEK293-CLDN18.2 stable pool, FITC-based detection.
Molecule B1 yielded an EC50 of 0.059 µM. In other words, the double-digit nanomolar range. To B2 belongs 0.061 µM; to B3, 0.0121 µM. B4: the EC50 turned out to be 0.0147 µM.

Take B5: the response was half-maximal at 0.0194 µM (EC50). The EC50 values of the last two molecules are within 1.5-fold of each other. To B6 belongs 0.259 µM; to B7, 0.0098 µM; to B8, 0.0112 µM. To B9 belongs 0.008 µM; to B10, 0.0114 µM; to B11, 0.0088 µM. As for B12, the figure is 0.0091 µM.
